Target: T1, CD3 epsilon homodimer protein (UniProt P07766 23-126)
T1 construct: also called CD3 (CD3 epsilon)
Assay: SPR (Biacore T200), CD3e homodimer on CM4 chip, antibody as analyte; KD ratio vs unaltered GLS3000;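 further: CD3 epsilon homodimer amine-coupled to the sensor surface, antibodies injected as analyte at 25 °C with HBS-EP+ running buffer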

T1 sequence (P07766 23-126): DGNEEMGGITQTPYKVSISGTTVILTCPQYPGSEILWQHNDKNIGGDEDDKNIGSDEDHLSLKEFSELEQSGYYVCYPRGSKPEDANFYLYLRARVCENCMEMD

Binder	KD ratio to GLS3000 [ratio]
CE115HA000/GLS3000 F55N one-arm antibody (antibody, human IgG1, kappa, L234A L235A, N297A, name in Kabat numbering, one-arm IgG1) heavy: QVQLVESGGGVVQPGRSLRLSCAASGFTFSNAWMHWVRQAPGKGLEWVAQIKAKSNNYATYYAESVKGRFTISRDDSKNSLYLQMNSLKTEDTAVYYCRYVHYGAYYGVDAWGQGTTVTVSSASTKGPSVFPLAPSSKSTSGGTAALGCLVKDYFPEPVTVSWNSGALTSGVHTFPAVLQSSGLYSLSSVVTVPSSSLGTQTYICNVNHKPSNTKVDKKVEPKSCDKTHTCPPCPAPEAAGGPSVFLFPPKPKDTLMISRTPEVTCVVVDVSHEDPEVKFNWYVDGVEVHNAKTKPREEQYASTYRVVSVLTVLHQDWLNGKEYKCKVSNKALPAPIEKTISKAKGQPREPQVYTLPPSRCELTKNQVSLSCAVKGFYPSDIAVEWESNGQPENNYKTTPPVLDSDGSFFLVSKLTVDKSRWQQGNVFSCSVMHEALHNHYTQKSLSLSPDYKDDDDK EPKSSDKTHTCPPCPAPELLGGPSVFLFPPKPKDTLMISRTPEVTCVVVDVSHEDPEVKFNWYVDGVEVHNAKTKPREEQYNSTYRVVSVLTVLHQDWLNGKEYKCKVSNKALPAPIEKTISKAKGQPREPQVCTLPPSRDELTKNQVSLWCLVKGFYPSDIAVEWESNGQPENNYKTTPPVLDSDGSFFLYSKLTVDKSRWQQGNVFSCSVMHEALHNRYTQKSLSLSP light: DIVMTQSPLSLPVTPGEPASISCRSSQSLVHSNRNTYLHWYQQKPGQAPRLLIYKVSNRNSGVPDRFSGSGSGTDFTLKISRVEAEDVGVYYCGQGTQVPYTFGQGTKLEIKRTVAAPSVFIFPPSDEQLKSGTASVVCLLNNFYPREAKVQWKVDNALQSGNSQESVTEQDSKDSTYSLSSTLTLSKADYEKHKVYACEVTHQGLSSPVTKSFNRGEC	0.91
CE115HA000/GLS3000 F55Q one-arm antibody (antibody, human IgG1, kappa, L234A L235A, N297A, name in Kabat numbering, one-arm IgG1) heavy: QVQLVESGGGVVQPGRSLRLSCAASGFTFSNAWMHWVRQAPGKGLEWVAQIKAKSNNYATYYAESVKGRFTISRDDSKNSLYLQMNSLKTEDTAVYYCRYVHYGAYYGVDAWGQGTTVTVSSASTKGPSVFPLAPSSKSTSGGTAALGCLVKDYFPEPVTVSWNSGALTSGVHTFPAVLQSSGLYSLSSVVTVPSSSLGTQTYICNVNHKPSNTKVDKKVEPKSCDKTHTCPPCPAPEAAGGPSVFLFPPKPKDTLMISRTPEVTCVVVDVSHEDPEVKFNWYVDGVEVHNAKTKPREEQYASTYRVVSVLTVLHQDWLNGKEYKCKVSNKALPAPIEKTISKAKGQPREPQVYTLPPSRCELTKNQVSLSCAVKGFYPSDIAVEWESNGQPENNYKTTPPVLDSDGSFFLVSKLTVDKSRWQQGNVFSCSVMHEALHNHYTQKSLSLSPDYKDDDDK EPKSSDKTHTCPPCPAPELLGGPSVFLFPPKPKDTLMISRTPEVTCVVVDVSHEDPEVKFNWYVDGVEVHNAKTKPREEQYNSTYRVVSVLTVLHQDWLNGKEYKCKVSNKALPAPIEKTISKAKGQPREPQVCTLPPSRDELTKNQVSLWCLVKGFYPSDIAVEWESNGQPENNYKTTPPVLDSDGSFFLYSKLTVDKSRWQQGNVFSCSVMHEALHNRYTQKSLSLSP light: DIVMTQSPLSLPVTPGEPASISCRSSQSLVHSNRNTYLHWYQQKPGQAPRLLIYKVSNRQSGVPDRFSGSGSGTDFTLKISRVEAEDVGVYYCGQGTQVPYTFGQGTKLEIKRTVAAPSVFIFPPSDEQLKSGTASVVCLLNNFYPREAKVQWKVDNALQSGNSQESVTEQDSKDSTYSLSSTLTLSKADYEKHKVYACEVTHQGLSSPVTKSFNRGEC	1.09
CE115HA000/GLS3000 F55R one-arm antibody (antibody, human IgG1, kappa, L234A L235A, N297A, name in Kabat numbering, one-arm IgG1) heavy: QVQLVESGGGVVQPGRSLRLSCAASGFTFSNAWMHWVRQAPGKGLEWVAQIKAKSNNYATYYAESVKGRFTISRDDSKNSLYLQMNSLKTEDTAVYYCRYVHYGAYYGVDAWGQGTTVTVSSASTKGPSVFPLAPSSKSTSGGTAALGCLVKDYFPEPVTVSWNSGALTSGVHTFPAVLQSSGLYSLSSVVTVPSSSLGTQTYICNVNHKPSNTKVDKKVEPKSCDKTHTCPPCPAPEAAGGPSVFLFPPKPKDTLMISRTPEVTCVVVDVSHEDPEVKFNWYVDGVEVHNAKTKPREEQYASTYRVVSVLTVLHQDWLNGKEYKCKVSNKALPAPIEKTISKAKGQPREPQVYTLPPSRCELTKNQVSLSCAVKGFYPSDIAVEWESNGQPENNYKTTPPVLDSDGSFFLVSKLTVDKSRWQQGNVFSCSVMHEALHNHYTQKSLSLSPDYKDDDDK EPKSSDKTHTCPPCPAPELLGGPSVFLFPPKPKDTLMISRTPEVTCVVVDVSHEDPEVKFNWYVDGVEVHNAKTKPREEQYNSTYRVVSVLTVLHQDWLNGKEYKCKVSNKALPAPIEKTISKAKGQPREPQVCTLPPSRDELTKNQVSLWCLVKGFYPSDIAVEWESNGQPENNYKTTPPVLDSDGSFFLYSKLTVDKSRWQQGNVFSCSVMHEALHNRYTQKSLSLSP light: DIVMTQSPLSLPVTPGEPASISCRSSQSLVHSNRNTYLHWYQQKPGQAPRLLIYKVSNRRSGVPDRFSGSGSGTDFTLKISRVEAEDVGVYYCGQGTQVPYTFGQGTKLEIKRTVAAPSVFIFPPSDEQLKSGTASVVCLLNNFYPREAKVQWKVDNALQSGNSQESVTEQDSKDSTYSLSSTLTLSKADYEKHKVYACEVTHQGLSSPVTKSFNRGEC	1.27
CE115HA000/GLS3000 F55S one-arm antibody (antibody, human IgG1, kappa, L234A L235A, N297A, name in Kabat numbering, one-arm IgG1) heavy: QVQLVESGGGVVQPGRSLRLSCAASGFTFSNAWMHWVRQAPGKGLEWVAQIKAKSNNYATYYAESVKGRFTISRDDSKNSLYLQMNSLKTEDTAVYYCRYVHYGAYYGVDAWGQGTTVTVSSASTKGPSVFPLAPSSKSTSGGTAALGCLVKDYFPEPVTVSWNSGALTSGVHTFPAVLQSSGLYSLSSVVTVPSSSLGTQTYICNVNHKPSNTKVDKKVEPKSCDKTHTCPPCPAPEAAGGPSVFLFPPKPKDTLMISRTPEVTCVVVDVSHEDPEVKFNWYVDGVEVHNAKTKPREEQYASTYRVVSVLTVLHQDWLNGKEYKCKVSNKALPAPIEKTISKAKGQPREPQVYTLPPSRCELTKNQVSLSCAVKGFYPSDIAVEWESNGQPENNYKTTPPVLDSDGSFFLVSKLTVDKSRWQQGNVFSCSVMHEALHNHYTQKSLSLSPDYKDDDDK EPKSSDKTHTCPPCPAPELLGGPSVFLFPPKPKDTLMISRTPEVTCVVVDVSHEDPEVKFNWYVDGVEVHNAKTKPREEQYNSTYRVVSVLTVLHQDWLNGKEYKCKVSNKALPAPIEKTISKAKGQPREPQVCTLPPSRDELTKNQVSLWCLVKGFYPSDIAVEWESNGQPENNYKTTPPVLDSDGSFFLYSKLTVDKSRWQQGNVFSCSVMHEALHNRYTQKSLSLSP light: DIVMTQSPLSLPVTPGEPASISCRSSQSLVHSNRNTYLHWYQQKPGQAPRLLIYKVSNRSSGVPDRFSGSGSGTDFTLKISRVEAEDVGVYYCGQGTQVPYTFGQGTKLEIKRTVAAPSVFIFPPSDEQLKSGTASVVCLLNNFYPREAKVQWKVDNALQSGNSQESVTEQDSKDSTYSLSSTLTLSKADYEKHKVYACEVTHQGLSSPVTKSFNRGEC	1.15
CE115HA000/GLS3000 F55T one-arm antibody (antibody, human IgG1, kappa, L234A L235A, N297A, name in Kabat numbering, one-arm IgG1) heavy: QVQLVESGGGVVQPGRSLRLSCAASGFTFSNAWMHWVRQAPGKGLEWVAQIKAKSNNYATYYAESVKGRFTISRDDSKNSLYLQMNSLKTEDTAVYYCRYVHYGAYYGVDAWGQGTTVTVSSASTKGPSVFPLAPSSKSTSGGTAALGCLVKDYFPEPVTVSWNSGALTSGVHTFPAVLQSSGLYSLSSVVTVPSSSLGTQTYICNVNHKPSNTKVDKKVEPKSCDKTHTCPPCPAPEAAGGPSVFLFPPKPKDTLMISRTPEVTCVVVDVSHEDPEVKFNWYVDGVEVHNAKTKPREEQYASTYRVVSVLTVLHQDWLNGKEYKCKVSNKALPAPIEKTISKAKGQPREPQVYTLPPSRCELTKNQVSLSCAVKGFYPSDIAVEWESNGQPENNYKTTPPVLDSDGSFFLVSKLTVDKSRWQQGNVFSCSVMHEALHNHYTQKSLSLSPDYKDDDDK EPKSSDKTHTCPPCPAPELLGGPSVFLFPPKPKDTLMISRTPEVTCVVVDVSHEDPEVKFNWYVDGVEVHNAKTKPREEQYNSTYRVVSVLTVLHQDWLNGKEYKCKVSNKALPAPIEKTISKAKGQPREPQVCTLPPSRDELTKNQVSLWCLVKGFYPSDIAVEWESNGQPENNYKTTPPVLDSDGSFFLYSKLTVDKSRWQQGNVFSCSVMHEALHNRYTQKSLSLSP light: DIVMTQSPLSLPVTPGEPASISCRSSQSLVHSNRNTYLHWYQQKPGQAPRLLIYKVSNRTSGVPDRFSGSGSGTDFTLKISRVEAEDVGVYYCGQGTQVPYTFGQGTKLEIKRTVAAPSVFIFPPSDEQLKSGTASVVCLLNNFYPREAKVQWKVDNALQSGNSQESVTEQDSKDSTYSLSSTLTLSKADYEKHKVYACEVTHQGLSSPVTKSFNRGEC	2.42
CE115HA000/GLS3000 F55P one-arm antibody (antibody, human IgG1, kappa, L234A L235A, N297A, name in Kabat numbering, one-arm IgG1) heavy: QVQLVESGGGVVQPGRSLRLSCAASGFTFSNAWMHWVRQAPGKGLEWVAQIKAKSNNYATYYAESVKGRFTISRDDSKNSLYLQMNSLKTEDTAVYYCRYVHYGAYYGVDAWGQGTTVTVSSASTKGPSVFPLAPSSKSTSGGTAALGCLVKDYFPEPVTVSWNSGALTSGVHTFPAVLQSSGLYSLSSVVTVPSSSLGTQTYICNVNHKPSNTKVDKKVEPKSCDKTHTCPPCPAPEAAGGPSVFLFPPKPKDTLMISRTPEVTCVVVDVSHEDPEVKFNWYVDGVEVHNAKTKPREEQYASTYRVVSVLTVLHQDWLNGKEYKCKVSNKALPAPIEKTISKAKGQPREPQVYTLPPSRCELTKNQVSLSCAVKGFYPSDIAVEWESNGQPENNYKTTPPVLDSDGSFFLVSKLTVDKSRWQQGNVFSCSVMHEALHNHYTQKSLSLSPDYKDDDDK EPKSSDKTHTCPPCPAPELLGGPSVFLFPPKPKDTLMISRTPEVTCVVVDVSHEDPEVKFNWYVDGVEVHNAKTKPREEQYNSTYRVVSVLTVLHQDWLNGKEYKCKVSNKALPAPIEKTISKAKGQPREPQVCTLPPSRDELTKNQVSLWCLVKGFYPSDIAVEWESNGQPENNYKTTPPVLDSDGSFFLYSKLTVDKSRWQQGNVFSCSVMHEALHNRYTQKSLSLSP light: DIVMTQSPLSLPVTPGEPASISCRSSQSLVHSNRNTYLHWYQQKPGQAPRLLIYKVSNRPSGVPDRFSGSGSGTDFTLKISRVEAEDVGVYYCGQGTQVPYTFGQGTKLEIKRTVAAPSVFIFPPSDEQLKSGTASVVCLLNNFYPREAKVQWKVDNALQSGNSQESVTEQDSKDSTYSLSSTLTLSKADYEKHKVYACEVTHQGLSSPVTKSFNRGEC	1.15

Reference: patent publication US20240270846A1 (published 2024)
